Reference: patent US20190134153A1, “IMMUNOMODULATORY EFFECT OF INHALED KINASE INHIBITOR PEPTIDES IN LUNG” (MOERAE MATRIX, INC., priority 2017, published 2019)

Tests used:
Assay in all cases: Kinase Profiling Assay
Format in all cases: biochemical
Details in all cases: 100 μM
[1] = target: FGFR4(h) (Homo sapiens, UniProt P22455)
[2] = target: JNK2α2(h) (Homo sapiens, UniProt P45984)
[3] = target: cKit(V654A)(h) (Homo sapiens, UniProt P10721, V654A)
[4] = target: CDK5/p35(h) (Homo sapiens, UniProt Q00535)
[5] = target: T1, Src(1-530)(h) (Homo sapiens, UniProt P12931)
T1 construct: Src(1-530)(h)

[6] = target: Fer(h) (Homo sapiens, UniProt P16591)
[7] = target: T2, DMPK(h) (Homo sapiens, UniProt Q09013)
T2 sequence (Q09013 1-629): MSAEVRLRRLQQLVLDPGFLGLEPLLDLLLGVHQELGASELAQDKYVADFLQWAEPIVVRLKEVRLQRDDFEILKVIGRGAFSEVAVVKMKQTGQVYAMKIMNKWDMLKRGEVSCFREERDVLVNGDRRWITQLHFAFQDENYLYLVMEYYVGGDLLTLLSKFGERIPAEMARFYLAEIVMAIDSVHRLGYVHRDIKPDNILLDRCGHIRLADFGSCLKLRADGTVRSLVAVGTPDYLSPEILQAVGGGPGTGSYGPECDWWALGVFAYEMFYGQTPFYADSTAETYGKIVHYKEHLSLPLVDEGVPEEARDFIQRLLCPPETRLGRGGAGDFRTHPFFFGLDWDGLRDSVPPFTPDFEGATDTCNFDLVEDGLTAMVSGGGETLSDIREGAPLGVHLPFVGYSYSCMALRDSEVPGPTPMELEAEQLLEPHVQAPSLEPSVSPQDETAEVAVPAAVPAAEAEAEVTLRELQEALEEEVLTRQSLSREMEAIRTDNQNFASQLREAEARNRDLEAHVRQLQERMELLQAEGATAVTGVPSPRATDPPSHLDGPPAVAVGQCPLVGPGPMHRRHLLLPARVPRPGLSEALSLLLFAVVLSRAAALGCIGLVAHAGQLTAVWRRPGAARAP

[8] = target: PKCα(h) (Homo sapiens, UniProt P17252)
[9] = target: EGFR(T790M, L858R)(h) (Homo sapiens, UniProt P00533, L858R/T790M)
[10] = target: T3, IKKβ(h) (Homo sapiens, UniProt O14920)
T3 sequence (O14920 1-756): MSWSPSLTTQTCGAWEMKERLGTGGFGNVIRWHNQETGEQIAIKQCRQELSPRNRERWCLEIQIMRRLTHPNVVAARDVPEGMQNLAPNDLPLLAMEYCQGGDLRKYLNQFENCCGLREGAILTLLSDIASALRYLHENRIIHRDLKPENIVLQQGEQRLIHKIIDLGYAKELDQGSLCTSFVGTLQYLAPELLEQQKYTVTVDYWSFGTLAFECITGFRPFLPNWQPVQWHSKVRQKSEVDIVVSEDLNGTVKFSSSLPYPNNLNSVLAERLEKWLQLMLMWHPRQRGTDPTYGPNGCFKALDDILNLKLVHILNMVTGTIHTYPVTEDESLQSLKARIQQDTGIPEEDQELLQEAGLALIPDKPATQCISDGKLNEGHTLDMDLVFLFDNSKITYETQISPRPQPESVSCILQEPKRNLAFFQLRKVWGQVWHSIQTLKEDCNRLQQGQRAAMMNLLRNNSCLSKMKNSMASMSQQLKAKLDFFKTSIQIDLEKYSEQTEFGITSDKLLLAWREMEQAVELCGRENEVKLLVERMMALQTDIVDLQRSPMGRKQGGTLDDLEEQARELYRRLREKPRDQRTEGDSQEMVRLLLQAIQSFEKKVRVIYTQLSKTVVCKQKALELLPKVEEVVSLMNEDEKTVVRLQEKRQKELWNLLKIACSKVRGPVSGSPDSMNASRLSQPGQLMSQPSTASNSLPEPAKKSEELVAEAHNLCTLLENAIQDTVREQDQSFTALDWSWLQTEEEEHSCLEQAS

[11] = target: SIK(h) (Homo sapiens, UniProt P57059)
[12] = target: GRK6(h) (Homo sapiens, UniProt P43250)
[13] = target: T4, Bmx(h) (Homo sapiens, UniProt P51813)
T4 sequence (P51813 1-675): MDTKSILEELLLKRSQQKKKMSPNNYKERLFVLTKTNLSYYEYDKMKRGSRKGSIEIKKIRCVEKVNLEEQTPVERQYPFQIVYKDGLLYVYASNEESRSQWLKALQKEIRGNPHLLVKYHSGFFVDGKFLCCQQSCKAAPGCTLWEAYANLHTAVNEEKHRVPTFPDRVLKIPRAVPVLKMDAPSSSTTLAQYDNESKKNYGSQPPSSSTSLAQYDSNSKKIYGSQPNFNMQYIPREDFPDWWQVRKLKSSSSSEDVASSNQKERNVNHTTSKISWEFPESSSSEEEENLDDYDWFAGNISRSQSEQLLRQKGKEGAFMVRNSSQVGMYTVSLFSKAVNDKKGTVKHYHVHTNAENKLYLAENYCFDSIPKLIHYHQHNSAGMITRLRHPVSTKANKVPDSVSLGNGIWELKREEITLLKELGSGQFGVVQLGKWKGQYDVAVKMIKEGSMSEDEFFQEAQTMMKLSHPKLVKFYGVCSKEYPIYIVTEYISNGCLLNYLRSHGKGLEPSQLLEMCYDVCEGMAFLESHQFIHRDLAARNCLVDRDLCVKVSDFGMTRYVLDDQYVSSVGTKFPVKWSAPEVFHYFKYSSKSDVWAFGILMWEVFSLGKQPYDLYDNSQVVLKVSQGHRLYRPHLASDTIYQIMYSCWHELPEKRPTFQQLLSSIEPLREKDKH

CDK5/p35(h), sequence (Q00535 whole entry): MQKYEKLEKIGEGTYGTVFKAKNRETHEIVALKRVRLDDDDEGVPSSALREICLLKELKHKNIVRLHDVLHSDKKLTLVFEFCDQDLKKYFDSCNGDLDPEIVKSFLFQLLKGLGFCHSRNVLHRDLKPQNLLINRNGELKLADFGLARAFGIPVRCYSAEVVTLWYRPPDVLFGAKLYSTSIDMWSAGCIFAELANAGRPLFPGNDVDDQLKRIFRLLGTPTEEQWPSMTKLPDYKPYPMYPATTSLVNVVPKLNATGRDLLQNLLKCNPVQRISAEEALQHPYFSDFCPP
CDK5/p35(h), sequence (Q15078 whole entry partner): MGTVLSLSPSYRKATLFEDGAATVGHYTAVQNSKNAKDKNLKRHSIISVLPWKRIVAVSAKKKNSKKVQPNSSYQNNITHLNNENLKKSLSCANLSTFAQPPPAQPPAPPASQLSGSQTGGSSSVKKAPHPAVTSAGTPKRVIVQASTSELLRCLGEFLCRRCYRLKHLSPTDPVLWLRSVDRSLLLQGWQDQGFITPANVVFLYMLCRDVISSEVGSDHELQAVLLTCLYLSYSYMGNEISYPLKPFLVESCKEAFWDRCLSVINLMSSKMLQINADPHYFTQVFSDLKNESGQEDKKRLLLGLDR
Fer(h), sequence (P16591 whole entry): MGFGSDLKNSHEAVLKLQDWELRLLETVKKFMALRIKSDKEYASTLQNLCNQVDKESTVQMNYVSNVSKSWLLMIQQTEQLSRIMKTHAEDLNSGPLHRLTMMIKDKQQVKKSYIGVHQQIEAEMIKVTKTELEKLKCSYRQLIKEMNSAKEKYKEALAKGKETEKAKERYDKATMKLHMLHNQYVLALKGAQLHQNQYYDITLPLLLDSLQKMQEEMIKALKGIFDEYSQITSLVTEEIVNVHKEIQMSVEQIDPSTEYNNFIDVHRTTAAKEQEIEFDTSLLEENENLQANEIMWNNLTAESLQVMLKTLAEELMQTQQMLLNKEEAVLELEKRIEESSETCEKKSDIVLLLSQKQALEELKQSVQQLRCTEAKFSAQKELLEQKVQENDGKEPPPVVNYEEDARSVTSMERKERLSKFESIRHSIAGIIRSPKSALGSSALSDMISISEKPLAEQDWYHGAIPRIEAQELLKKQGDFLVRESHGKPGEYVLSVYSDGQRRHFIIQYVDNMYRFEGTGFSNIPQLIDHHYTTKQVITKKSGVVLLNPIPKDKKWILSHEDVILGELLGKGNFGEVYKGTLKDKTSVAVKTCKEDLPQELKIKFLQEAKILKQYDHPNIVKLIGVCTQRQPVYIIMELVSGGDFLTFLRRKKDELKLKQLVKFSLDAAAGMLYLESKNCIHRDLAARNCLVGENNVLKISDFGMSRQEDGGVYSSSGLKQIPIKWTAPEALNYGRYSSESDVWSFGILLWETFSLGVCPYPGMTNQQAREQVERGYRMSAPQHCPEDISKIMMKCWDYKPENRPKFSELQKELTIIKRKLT
SIK(h), sequence (P57059 whole entry): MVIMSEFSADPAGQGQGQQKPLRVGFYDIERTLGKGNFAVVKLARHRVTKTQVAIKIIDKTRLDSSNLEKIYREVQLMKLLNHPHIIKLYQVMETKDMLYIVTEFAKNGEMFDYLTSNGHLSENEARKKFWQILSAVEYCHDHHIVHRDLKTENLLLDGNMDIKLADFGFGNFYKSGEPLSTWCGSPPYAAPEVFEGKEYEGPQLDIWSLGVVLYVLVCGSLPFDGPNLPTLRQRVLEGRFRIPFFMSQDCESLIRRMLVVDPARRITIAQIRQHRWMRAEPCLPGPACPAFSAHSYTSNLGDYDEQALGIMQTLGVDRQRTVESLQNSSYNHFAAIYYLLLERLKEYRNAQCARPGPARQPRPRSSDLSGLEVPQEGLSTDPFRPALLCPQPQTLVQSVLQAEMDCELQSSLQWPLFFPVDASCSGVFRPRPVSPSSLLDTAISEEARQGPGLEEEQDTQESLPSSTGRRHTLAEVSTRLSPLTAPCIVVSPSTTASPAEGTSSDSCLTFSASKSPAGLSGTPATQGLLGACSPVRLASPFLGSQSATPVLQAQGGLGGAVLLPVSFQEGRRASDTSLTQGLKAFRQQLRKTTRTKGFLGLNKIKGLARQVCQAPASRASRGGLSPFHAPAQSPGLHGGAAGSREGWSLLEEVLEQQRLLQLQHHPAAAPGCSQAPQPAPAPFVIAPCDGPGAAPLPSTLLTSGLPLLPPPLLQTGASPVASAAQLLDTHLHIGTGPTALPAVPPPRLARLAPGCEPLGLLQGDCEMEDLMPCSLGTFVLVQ
GRK6(h), sequence (P43250 whole entry): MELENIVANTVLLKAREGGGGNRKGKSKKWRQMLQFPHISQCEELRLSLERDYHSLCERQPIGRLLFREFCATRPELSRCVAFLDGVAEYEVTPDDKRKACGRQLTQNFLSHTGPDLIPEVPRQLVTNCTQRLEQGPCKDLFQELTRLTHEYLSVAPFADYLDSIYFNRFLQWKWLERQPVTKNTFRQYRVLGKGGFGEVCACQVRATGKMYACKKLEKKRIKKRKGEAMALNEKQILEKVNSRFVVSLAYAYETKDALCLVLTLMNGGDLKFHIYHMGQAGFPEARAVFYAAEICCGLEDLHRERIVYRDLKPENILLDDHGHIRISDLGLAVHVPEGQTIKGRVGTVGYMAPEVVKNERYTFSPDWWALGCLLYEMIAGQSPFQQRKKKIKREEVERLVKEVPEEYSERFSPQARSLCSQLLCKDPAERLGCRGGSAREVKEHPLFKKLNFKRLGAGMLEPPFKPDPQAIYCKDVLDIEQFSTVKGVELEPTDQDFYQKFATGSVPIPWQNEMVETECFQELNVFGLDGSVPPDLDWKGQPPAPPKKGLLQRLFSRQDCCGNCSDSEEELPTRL

| Sequence | % activity [1] | % activity [2] | % activity [3] | % activity [4] | % activity [5] | % activity [6] | % activity [7] | % activity [8] | % activity [9] | % activity [10] | % activity [11] | % activity [12] | % activity [13] |
| --- | --- | --- | --- | --- | --- | --- | --- | --- | --- | --- | --- | --- | --- |
| FAKLAARLYRKALARQLGVAA [MMI-0300] | 28% | 98% | 134% | 79% | 23% | 130% | 59% | 89% | 85% | 84% | 66% | 147% | – |
| KAFAKLAARLYRKALARQLGVAA [MMI-0400] | 19% | 96% | 150% | 76% | 19% | 108% | 54% | 86% | 78% | 84% | 68% | 141% | 26% |
| HRRIKAWLKKIKALARQLGVAA [MMI-0500] | 3% | 81% | 223% | 59% | 21% | 196% | 12% | 3% | 53% | 71% | 40% | 174% | 45% |
| YARAAARQARAKALNRQLGVA [MMI-0200] | 75% | – | – | 92% | 75% | 101% | 66% | 100% | 108% | – | – | 132% | 76% |
